Paper doi:10.1101/2024.03.27.586992, “Molecular basis for condensin enrichment at pericentromeres” (bioRxiv, 2024)

T1: Ycg1(6-932, Δ499-555) (S. cerevisiae, UniProt Q06680 6-932, Δ499-555)
T1 construct: Stood in the assay as a chain of m6; made a molecule for the cross-links
T1 sequence (looked up): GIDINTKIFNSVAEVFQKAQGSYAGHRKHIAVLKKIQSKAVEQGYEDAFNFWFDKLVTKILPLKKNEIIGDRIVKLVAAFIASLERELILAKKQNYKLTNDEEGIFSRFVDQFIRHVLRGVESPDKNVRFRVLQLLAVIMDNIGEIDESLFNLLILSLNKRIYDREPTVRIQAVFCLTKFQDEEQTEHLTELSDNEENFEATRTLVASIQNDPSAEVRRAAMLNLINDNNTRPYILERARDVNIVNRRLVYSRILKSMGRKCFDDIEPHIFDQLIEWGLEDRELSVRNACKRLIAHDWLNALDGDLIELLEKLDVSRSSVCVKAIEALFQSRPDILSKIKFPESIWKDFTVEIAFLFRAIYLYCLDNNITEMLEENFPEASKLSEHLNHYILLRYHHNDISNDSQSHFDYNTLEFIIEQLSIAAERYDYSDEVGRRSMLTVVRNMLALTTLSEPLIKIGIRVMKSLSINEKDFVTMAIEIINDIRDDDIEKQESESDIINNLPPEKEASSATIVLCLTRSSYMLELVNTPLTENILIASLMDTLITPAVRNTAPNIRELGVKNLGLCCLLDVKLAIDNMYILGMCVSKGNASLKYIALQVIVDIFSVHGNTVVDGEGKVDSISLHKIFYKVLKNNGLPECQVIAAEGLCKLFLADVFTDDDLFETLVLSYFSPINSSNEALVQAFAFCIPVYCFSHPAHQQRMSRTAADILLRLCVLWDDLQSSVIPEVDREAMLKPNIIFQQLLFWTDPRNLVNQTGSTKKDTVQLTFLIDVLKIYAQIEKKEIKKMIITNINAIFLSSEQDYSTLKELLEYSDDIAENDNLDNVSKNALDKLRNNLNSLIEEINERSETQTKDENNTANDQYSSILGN

T2: Ycg1 (subunit within the purified pentameric condensin holocomplex) (S. cerevisiae, UniProt Q06680 1-1035)
T2 construct: Ycg1, HAWK subunit of S. cerevisiae condensin; Stood in the assay as a subunit of m2; made a molecule for the cross-links to Sgo1; source: purified from yeast as part of the pentameric condensin complex
T2 sequence (looked up): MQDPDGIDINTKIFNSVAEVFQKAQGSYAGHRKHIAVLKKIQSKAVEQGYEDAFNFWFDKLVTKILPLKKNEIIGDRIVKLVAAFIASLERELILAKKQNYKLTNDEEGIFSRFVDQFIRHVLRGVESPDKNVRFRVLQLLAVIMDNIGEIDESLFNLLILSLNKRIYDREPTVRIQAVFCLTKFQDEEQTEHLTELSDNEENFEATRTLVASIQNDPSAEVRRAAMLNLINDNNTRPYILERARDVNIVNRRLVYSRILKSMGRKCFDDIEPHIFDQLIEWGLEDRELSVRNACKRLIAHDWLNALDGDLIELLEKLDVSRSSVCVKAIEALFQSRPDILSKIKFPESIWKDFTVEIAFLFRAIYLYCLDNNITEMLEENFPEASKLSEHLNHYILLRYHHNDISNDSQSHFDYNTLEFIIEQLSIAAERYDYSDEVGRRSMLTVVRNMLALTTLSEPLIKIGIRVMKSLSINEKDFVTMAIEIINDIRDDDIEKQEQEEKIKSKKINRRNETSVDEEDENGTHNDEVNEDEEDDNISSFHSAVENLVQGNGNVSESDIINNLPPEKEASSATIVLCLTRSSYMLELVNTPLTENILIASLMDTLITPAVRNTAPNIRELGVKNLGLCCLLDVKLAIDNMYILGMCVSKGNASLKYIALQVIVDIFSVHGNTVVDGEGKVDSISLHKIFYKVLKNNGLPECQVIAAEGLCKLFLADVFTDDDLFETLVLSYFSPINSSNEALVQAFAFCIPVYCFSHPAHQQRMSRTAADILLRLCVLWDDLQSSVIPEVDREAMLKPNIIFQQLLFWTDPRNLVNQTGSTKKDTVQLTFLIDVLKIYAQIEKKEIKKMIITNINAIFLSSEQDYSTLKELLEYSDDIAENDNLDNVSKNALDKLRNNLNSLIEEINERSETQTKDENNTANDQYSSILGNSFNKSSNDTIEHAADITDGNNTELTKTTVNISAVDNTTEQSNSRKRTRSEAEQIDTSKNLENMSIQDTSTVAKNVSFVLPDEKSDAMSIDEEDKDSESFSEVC

T3: Ycg1(6-932, Δ499-555)-Brn1(384-529) (S. cerevisiae, UniProt Q06680 6-932; P38170 384-529, Δ499-555)
T3 construct: Brn1, S. cerevisiae, residues 384-529; also called Ycg1-Brn1; Ycg1-short Brn1
T3 sequence (looked up) 1: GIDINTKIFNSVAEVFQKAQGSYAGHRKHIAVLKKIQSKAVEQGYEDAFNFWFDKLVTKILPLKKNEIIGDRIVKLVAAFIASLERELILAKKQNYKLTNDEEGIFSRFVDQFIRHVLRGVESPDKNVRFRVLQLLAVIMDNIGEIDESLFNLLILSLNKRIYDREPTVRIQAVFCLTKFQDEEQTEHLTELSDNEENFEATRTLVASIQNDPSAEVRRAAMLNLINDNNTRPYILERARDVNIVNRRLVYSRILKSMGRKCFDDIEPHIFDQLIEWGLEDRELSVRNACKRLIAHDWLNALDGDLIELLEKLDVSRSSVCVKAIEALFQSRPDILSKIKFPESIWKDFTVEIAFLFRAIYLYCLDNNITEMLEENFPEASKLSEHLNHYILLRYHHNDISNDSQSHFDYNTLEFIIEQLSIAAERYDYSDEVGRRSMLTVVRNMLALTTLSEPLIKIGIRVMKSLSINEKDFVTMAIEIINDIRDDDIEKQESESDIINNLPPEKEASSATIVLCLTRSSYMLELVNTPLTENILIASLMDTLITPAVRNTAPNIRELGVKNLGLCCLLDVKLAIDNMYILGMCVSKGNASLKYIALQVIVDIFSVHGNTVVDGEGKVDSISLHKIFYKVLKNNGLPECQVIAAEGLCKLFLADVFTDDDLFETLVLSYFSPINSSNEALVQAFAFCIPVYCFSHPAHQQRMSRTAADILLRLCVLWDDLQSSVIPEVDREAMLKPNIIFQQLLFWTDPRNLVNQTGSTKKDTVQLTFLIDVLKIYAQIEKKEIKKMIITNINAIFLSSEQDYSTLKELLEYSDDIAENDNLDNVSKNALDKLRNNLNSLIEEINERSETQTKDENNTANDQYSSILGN
T3 sequence (looked up) 2: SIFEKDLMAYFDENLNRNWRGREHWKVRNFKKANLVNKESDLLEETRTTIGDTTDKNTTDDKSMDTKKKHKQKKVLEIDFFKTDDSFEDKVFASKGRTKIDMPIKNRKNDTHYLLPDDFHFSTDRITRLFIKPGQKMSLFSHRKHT


Columns and labels:
Conditions in all cases: both partners purified
[1] = target: T1, Ycg1(6-932, Δ499-555); experiment: cross-linking; BS3 cross-linking mass spectrometry; Sgo1: Ycg1-Brn1 molar ratio 1.5:1; 25 mM HEPES pH7.5, 500 mM NaCl, 10% glycerol; 2 hours on ice; crosslinks with score>10.5
[2] = target: T2, Ycg1 (subunit within the purified …); experiment: cross-linking; BS3 cross-linking mass spectrometry of full length Sgo1 with condensin holo-complex, 1:1 (w:w); 25 mM HEPES pH7.5, 150 mM NaCl, 5% glycerol, 1mM DTT; 2 hours on ice; crosslinks with score>10.5
[3] = target: T3, Ycg1(6-932, Δ499-555)-Brn1(384-529); experiment: co-IP; two purified recombinant proteins incubated 2.5 hours with anti-V5-coupled dynabeads (V5-Sgo1 held); 25 mM HEPES pH 7.5, 500 mM NaCl, 10 % glycerol, 1 mM DTT, 0.1 % NP-40; silver stain or immunoblot
[4] = target: T3, Ycg1(6-932, Δ499-555)-Brn1(384-529); experiment: co-IP; two purified recombinant proteins incubated 2.5 hours with anti-GFP-coupled dynabeads (GFP-Sgo1 variant held); 25 mM HEPES pH 7.5, 500 mM NaCl, 10 % glycerol, 1 mM DTT, 0.1 % NP-40; silver stain

| Binder | binding result [1] | binding result [4] | further results |
| --- | --- | --- | --- |
| Brn1(384-529) (domain or fragment, S. cerevisiae, UniProt P38170 384-529, looked up, Brn1, S. cerevisiae, residues 384-529; Stood in the assay as a chain of m6; made a molecule for the cross-links; also called short Brn1) SIFEKDLMAYFDENLNRNWRGREHWKVRNFKKANLVNKESDLLEETRTTIGDTTDKNTTDDKSMDTKKKHKQKKVLEIDFFKTDDSFEDKVFASKGRTKIDMPIKNRKNDTHYLLPDDFHFSTDRITRLFIKPGQKMSLFSHRKHT | binds | – | – |
| V5-Sgo1 (FL) (natural protein, S. cerevisiae, UniProt Q08490 1-590, looked up, Sgo1 (shugoshin), S. cerevisiae, full length; Written V5-Sgo1; also called full length Sgo1; shugoshin; source: protease-deficient yeast strain (AM8184), purified (Ni2+ HiTrap IMAC, Superose 6 gel filtration)) MPKRKIAPNKESSRRTVSHDDLTPQIQEFQNLMDLESQKVENIRQSYSRQNSLLAKDNSILKIKVNSLEKKISQLVQENVTLRSKTSISEAIYRERLSNQLQVIENGIIQRFDEIFYMFENVRKNENLPSSSLRTMLKRTSSRSRSCSLSSPTYSKSYTRLSNHENNLSHESSFNKDDGPDLEPKAKKRKSSRRQSMFVSTSLEPEDETGENEPMMENSSVEVPAESHESAQVEETIDALNPEEENSDSVSNFTNSIIEYSIPEENPTEPEHSSSKLEIFNDSTNMLSTVPSNPLPLPLPGPSATLPTTTSDASTVYPSSSSSTNSHPKTKIKHSMKPPRIELKKKVIDEVMPVSNMSSNSEISFTRTRRTRGKAVDYTLPSLRAKMRRPSEKLVDATTVIDIHDLQVSKRNRETSHKRKSLSQDSIPDEPQLREVVVSKDYGTPKGKKTEDEIHEDTAHLMTTSNNNSNNKNEKKLTSNNSPKKSSPLLDITNKSENKKKSTRTKKLFKNAIVNNLSDENSTTRPSKSSKGTSNNNNNYNNFDNNNSNINNVNNKSVSFRLNEDDLAVFDLFGNGKAVKHQPKTYRTKK | – | – | binding result [2]: binds |

Continued, in another order:

| binding result [1] | binding result [4] | Binder | further results |
| --- | --- | --- | --- |
| binds | – | V5-Sgo1 (350-590) (domain or fragment, S. cerevisiae, UniProt Q08490 350-590, looked up, Sgo1, S. cerevisiae, residues 350-590 (C-terminal region); also called C-terminus of Sgo1 (350-590); C-Sgo1; source: protease-deficient yeast strain (AM8184), galactose induced, purified as V5-Sgo1 (FL) (Ni2+ IMAC, gel filtration)) EVMPVSNMSSNSEISFTRTRRTRGKAVDYTLPSLRAKMRRPSEKLVDATTVIDIHDLQVSKRNRETSHKRKSLSQDSIPDEPQLREVVVSKDYGTPKGKKTEDEIHEDTAHLMTTSNNNSNNKNEKKLTSNNSPKKSSPLLDITNKSENKKKSTRTKKLFKNAIVNNLSDENSTTRPSKSSKGTSNNNNNYNNFDNNNSNINNVNNKSVSFRLNEDDLAVFDLFGNGKAVKHQPKTYRTKK | binding result [3]: binds |
| – | binds | GFP-Sgo1(350-590) (domain or fragment, S. cerevisiae, UniProt Q08490 350-590, looked up, Sgo1, S. cerevisiae, residues 350-590; codon optimized gene; Written GFP-Sgo1; also called GFP-tagged C-Sgo1; wild type) EVMPVSNMSSNSEISFTRTRRTRGKAVDYTLPSLRAKMRRPSEKLVDATTVIDIHDLQVSKRNRETSHKRKSLSQDSIPDEPQLREVVVSKDYGTPKGKKTEDEIHEDTAHLMTTSNNNSNNKNEKKLTSNNSPKKSSPLLDITNKSENKKKSTRTKKLFKNAIVNNLSDENSTTRPSKSSKGTSNNNNNYNNFDNNNSNINNVNNKSVSFRLNEDDLAVFDLFGNGKAVKHQPKTYRTKK | – |
| – | binds | GFP-Sgo1 (472-530) (domain or fragment, S. cerevisiae, UniProt Q08490 472-530, looked up, Sgo1, S. cerevisiae, residues 472-530 (holds CR1); also called wild type; source: E. coli BL21(DE3), purified (Ni-NTA resin, dialysis)) KNEKKLTSNNSPKKSSPLLDITNKSENKKKSTRTKKLFKNAIVNNLSDENSTTRPSKSS | – |
